Data taken from article PMC6888877, “Deconstructing and repurposing the light-regulated interplay between Arabidopsis phytochromes and interacting factors” (Communications Biology, 2019).

T1: Arabidopsis thaliana phytochrome B photosensory core module (AtPhyB PCM) (Arabidopsis thaliana, UniProt P14713 1-651, covalently incorporated bilin chromophore (PCB; co-expressed Synechocystis sp. heme oxygenase 1 and pcyA))
T1 construct: A. thaliana phytochrome B, photosensory core module (PAS-GAF-PHY with N-terminal extension), residues 1-651; Pr state (far-red light or dark) and Pfr state (red light; Pfr/Pr about 0.56/0.44) are told apart by the assays; In the cell experiments other constructs were used (PCM-VP16; PCM 1-650 with CAAX); source: E. coli BL21(DE3), plasmid pDG282, purified (Ni-NTA IMAC, anion exchange)
T1 sequence (looked up): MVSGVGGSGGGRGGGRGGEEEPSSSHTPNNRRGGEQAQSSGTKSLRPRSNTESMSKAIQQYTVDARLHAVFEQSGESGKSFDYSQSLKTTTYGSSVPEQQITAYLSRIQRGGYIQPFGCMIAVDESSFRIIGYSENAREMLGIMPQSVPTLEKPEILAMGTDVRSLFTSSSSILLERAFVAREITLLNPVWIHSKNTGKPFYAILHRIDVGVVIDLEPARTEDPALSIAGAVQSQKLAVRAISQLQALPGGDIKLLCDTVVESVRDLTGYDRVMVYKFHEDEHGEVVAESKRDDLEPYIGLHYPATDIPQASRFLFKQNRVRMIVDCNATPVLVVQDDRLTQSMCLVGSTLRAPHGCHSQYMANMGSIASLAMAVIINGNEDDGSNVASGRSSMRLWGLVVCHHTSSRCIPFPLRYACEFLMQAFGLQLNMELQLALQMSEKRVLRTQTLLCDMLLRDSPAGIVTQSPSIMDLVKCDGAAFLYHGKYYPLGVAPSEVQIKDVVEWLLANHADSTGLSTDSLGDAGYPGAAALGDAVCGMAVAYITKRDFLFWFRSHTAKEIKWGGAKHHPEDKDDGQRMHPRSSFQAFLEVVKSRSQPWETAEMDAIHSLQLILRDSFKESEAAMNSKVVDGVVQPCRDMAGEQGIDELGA

B1: P3.A-EYFP (domain or fragment)
chain: MVDEVVELVWENGQISTQSQSSRSRNIPPPQANSSRAREIGN

How the values were obtained:
[1] = biological target: T1, Arabidopsis thaliana phytochrome B …; assay: fluorescence polarisation; anisotropy of EYFP; 20 nM AtPIF-EYFP constant, AtPhyB PCM 0-10 µM titrated, red light (640 nm), Pfr state; KD corrected for the Pfr fraction (about 0.56); 20 mM HEPES/HCl pH 7.3, 10 mM NaCl, 100 µg/mL BSA; single-site isotherm; settings: both partners purified
[2] = biological target: T1, Arabidopsis thaliana phytochrome B …; assay: fluorescence polarisation; anisotropy of EYFP; 20 nM AtPIF-EYFP constant, AtPhyB PCM 0-10 µM titrated, far-red light (750 nm), Pr state; 20 mM HEPES/HCl pH 7.3, 10 mM NaCl, 100 µg/mL BSA; single-site isotherm; settings: both partners purified
[3] = biological target: the molecule itself; assay: SEC; AtPIF-EYFP variants or EYFP alone, 10 µM, not illuminated; Superdex 200 Increase 10/300 GL; 67 mM sodium phosphate pH 8.0, 200 mM NaCl
P3.A-EYFP = biological target: B1; assay: as above

Row | Kd [1] | Kd [2] | stoichiometry N (P3.A-EYFP) | Binder | stoichiometry N [3]
1 | 710 ± 80 nM | > 10000 nM | – | MDQEYMELVFENGQILAKGQRSN (domain or fragment) [P6.As-EYFP] | –
2 | 220 ± 40 nM | > 10000 nM | – | P3 (AtPIF3 1-100 without the N-terminal region preceding APB.A)-EYFP (domain or fragment) MVDEVVELVWENGQISTQSQSSRSRNIPPPQANSSRAREIGNGSKTTMVDEIPMSVPSLMTGLSQDDDFVPWLNHH | 2
3 | 200 ± 90 nM | > 10000 nM | – | P6.fus-EYFP (domain or fragment) MDQEYMELVFENGQILAKGQRSNAITNLGDTQVVPQSHVAAAHETNMLESNKHVD | 2
4 | 10 ± 7 nM | – | – | P6 (AtPIF6 1-100 without the N-terminal region preceding APB.A)-EYFP (domain or fragment) MDQEYMELVFENGQILAKGQRSNVSLHNQRTKSIMDLYEAEYNEDFMKSIIHGGGGAITNLGDTQVVPQSHVAAAHETNMLESNKHVD | –
5 | 220 ± 40 nM | > 10000 nM | 2 | B1 | –
6 | 200 ± 70 nM | > 2000 nM | – | AtPIF3 (1-100)-EYFP, P3.100 (domain or fragment, Arabidopsis thaliana, UniProt O80536 1-100, looked up, A. thaliana PIF3, residues 1-100; His6-SUMO only on the pET-19b construct that was purified; the pET-28c construct used in lysate has the same AtPIF part, linker and EYFP; also called P3.100-EYFP; source: E. coli BL21(DE3): in crude lysate (pET-28c), and purified (pET-19b; IMAC, SENP2 cleavage, second IMAC, optional anion exchange); not shown: His6-SUMO, N-terminal, cleaved) MPLFELFRLTKAKLESAQDRNPSPPVDEVVELVWENGQISTQSQSSRSRNIPPPQANSSRAREIGNGSKTTMVDEIPMSVPSLMTGLSQDDDFVPWLNHH | 2
7 | > 1000 nM | – | – | MVDEVVELVWENGQISTQSQ (domain or fragment) [P3.A19-EYFP] | –
8 | 10 ± 8 nM | – | – | AtPIF6 (1-100)-EYFP, P6.100 (domain or fragment, Arabidopsis thaliana, UniProt Q8L5W7 1-100, looked up, A. thaliana PIF6, residues 1-100; His6-SUMO only on the pET-19b construct that was purified; the pET-28c construct used in lysate has the same AtPIF part, linker and EYFP; also called P6.100-EYFP; source: E. coli BL21(DE3): in crude lysate (pET-28c), and purified (pET-19b; IMAC, SENP2 cleavage, second IMAC, optional anion exchange); not shown: His6-SUMO, N-terminal, cleaved) MMFLPTDYCCRLSDQEYMELVFENGQILAKGQRSNVSLHNQRTKSIMDLYEAEYNEDFMKSIIHGGGGAITNLGDTQVVPQSHVAAAHETNMLESNKHVD | 2
9 | 230 ± 50 nM | > 10000 nM | – | P3.AAfus-EYFP (domain or fragment) MVDEVVELVWENGQISTQSQSSRSRVDEVVELVWENGQISTQSQSSRSRFVPWLNHH | –
10 | 680 ± 60 nM | > 10000 nM | – | MVDEVVELVWENGQISTQSQSSRSR (domain or fragment) [P3.As-EYFP] | –
11 | 270 ± 60 nM | > 10000 nM | – | MVDEVVELVWENGQISTQSQSSRSRMTGLSQDDDFVPWLNHH (domain or fragment) [P3.fus-EYFP] | –
12 | 230 ± 30 nM | > 10000 nM | – | P6.AAfus-EYFP (domain or fragment) MDQEYMELVFENGQILAKGQRSNDQEYMELVFENGQILAKGQRSNTNMLESNKHVD | –
13 | 360 ± 40 nM | > 2000 nM | – | P6.AA-EYFP (domain or fragment) MDQEYMELVFENGQILAKGQRSNVSLHNQRTKSIMDLYEAEYNEDFMKSIIHGGGGDQEYMELVFENGQILAKGQRSNTNMLESNKHVD | 2
14 | 280 ± 100 nM | > 2000 nM | – | MDQEYMELVFENGQILAKGQRSNVSLHNQRTKSIMDLYEA (domain or fragment) [P6.A-EYFP] | –
15 | 370 ± 40 nM | > 3000 nM | – | P3.AA-EYFP (domain or fragment) MVDEVVELVWENGQISTQSQSSRSRNIPPPQANSSRAREIGNGSKTTMVDEIPMSVPSLVDEVVELVWENGQISTQSQSSRSRFVPWLNHH | 2
16 | > 2000 nM | – | – | MDQEYMELVFENGQILAKGQ (domain or fragment) [P6.A19-EYFP] | –
